Test results from IntAct's records for PubMed 15028672.

Molecular target: crx_bovin CRX (UniProt Q9XSK0)
Sequence (Q9XSK0 whole entry): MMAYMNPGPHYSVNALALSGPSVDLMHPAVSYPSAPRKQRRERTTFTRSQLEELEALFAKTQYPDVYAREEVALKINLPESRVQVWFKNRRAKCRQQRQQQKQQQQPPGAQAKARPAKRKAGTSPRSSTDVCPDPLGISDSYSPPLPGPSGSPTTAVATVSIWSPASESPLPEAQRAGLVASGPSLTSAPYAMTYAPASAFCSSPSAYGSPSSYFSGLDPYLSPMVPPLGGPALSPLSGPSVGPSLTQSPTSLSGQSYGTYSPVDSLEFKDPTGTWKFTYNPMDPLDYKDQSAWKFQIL

Sequence of Retina and anterior neural fold homeobox protein 2 (Bos taurus (Bovine)), Q7YRX0 G137R (Q7YRX0 whole entry G137R): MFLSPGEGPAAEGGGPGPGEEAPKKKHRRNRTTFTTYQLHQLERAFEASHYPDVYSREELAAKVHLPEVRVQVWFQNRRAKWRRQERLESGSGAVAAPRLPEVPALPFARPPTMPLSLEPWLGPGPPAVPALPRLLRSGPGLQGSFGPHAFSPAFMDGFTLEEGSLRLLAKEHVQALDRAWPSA

Retina and anterior neural fold homeobox protein 2 (Bos taurus (Bovine)), Q7YRX0 G137R
effect of a mutation on the interaction: decreasing interaction
